Consider 2 molecules from patent US11312781B2, “Antigen binding molecules that bind LIGHT” (Capella Bioscience Ltd., priority 2018, dated 2022).

For experiment [1], the target named is T1, soluble LIGHT amino acids 74-240 (Homo sapiens, UniProt O43557, K214E).
T1 construct: amino acids 74-240 LIGHT (R&D Systems, 664-LI-025); purchased R&D Systems 664-LI-025
The experiment can be described thus: BIAcore (SPR) binding to soluble LIGHT 74-240. The protocol: Real-time binding interactions between captured antibody (chimeric anti-membrane LIGHT monoclonal antibody) captured on a biosensor matrix via goat anti-human Fc IgG and recombinant soluble LIGHT were measured by surface plasmon resonance (SPR) using the BIAcore system (GE Healthcare) according to manufacturer's instructions and standard procedures. Briefly, soluble LIGHT was diluted in HBS running buffer (GE Healthcare) and aliquots were injected through the immobilized protein matrices at a flow rate of […]. BIAevaluation software was used to calculate association rate (ka), dissociation rate (kd) and affinity (KD).
The specificity of two lead anti-membrane LIGHT mAbs to soluble LIGHT was determined by BIAcore analysis and compared to the KD calculated from the EC50 values in Table 7 (results in Table 9). In brief, mAbs 3D12, 3B04 were compared to a mAb that binds both soluble and membrane LIGHT, F19, (F19 IgG4 mAb from EP2292663). An irrelevant anti-HEL mAb, 2A11, was used as a negative control. The mAbs were captured on an anti-human Fc mAb coated chip and soluble LIGHT was passed over the surface and the kinetic parameters were calculated using BIAcore 3000 software. The soluble LIGHT preparations used were amino acids 74-240 LIGHT (R&D Systems, 664-LI-025) and 64-240 LIGHT (Abcam, ab82123).

For experiment [2], the target named is T2, membrane LIGHT stably expressed on EL4 cells (Homo sapiens, UniProt O43557).
T2 construct: expressed in transfected cells; host or cells: EL4 mouse lymphoma cells, stably transduced (Cheung et al. J. Immunol. 2009)
Kind of experiment: Binding ratio of mAbs bound to membrane LIGHT by flow cytometry (EL4 cells). Conditions: FIG. 7. The protocol: Stably transduced LIGHT expressing EL4 cells (mouse lymphoma cell line; EL4-LIGHT; Cheung et al. J. Immunol. 2009; 183:7286-7296) were used for the flow cytometry-based binding analysis. EL4-LIGHT cells (0.25×10^6 per well) that had been washed in were incubated with anti-LIGHT IgG4 clones (0.002-100 nM) for 30 min at 4° C. The cells were washed and anti-human IgG-APC conjugate (diluted 1:500, Biolegend cat. No. 409306) was used for detecting anti-LIGHT IgG bound on EL4-LIGHT cells.
FIG. 7 depicts the flow cytometry analysis of the anti-membrane LIGHT mAbs (3B04 and 3D12) binding to LIGHT stably expressed on EL4 cells. The maximum signal of the IgG4 mAbs 3B04 and 3D12 binding to membrane LIGHT is approximately 40000 MFI. In contrast anti-LIGHT mAbs F19 and F23 (IgG4 mAbs from EP2292663) gave a maximal signal of approximately 120000 MFI. The ratio of binding of mAb F19 and mAb F23 is approximately 3 times that of the anti-membrane LIGHT mAbs 3B04 and 3D12. […] Other mAbs of this invention; 2E08, 3A07, 3C10, 3E09 and 2B11 also bind LIGHT in a 1:1 ratio when compared to mAbs F19 and F23 by flow cytometry.
For orientation: Flow cytometry measures light scatter and fluorescence of single cells or particles in a stream.

T1 sequence (O43557 74-240 K214E): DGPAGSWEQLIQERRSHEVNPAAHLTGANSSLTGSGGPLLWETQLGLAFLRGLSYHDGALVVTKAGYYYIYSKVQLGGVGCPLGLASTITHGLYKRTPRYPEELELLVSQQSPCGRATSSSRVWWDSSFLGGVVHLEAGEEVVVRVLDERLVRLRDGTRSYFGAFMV
T2 sequence (O43557 whole entry): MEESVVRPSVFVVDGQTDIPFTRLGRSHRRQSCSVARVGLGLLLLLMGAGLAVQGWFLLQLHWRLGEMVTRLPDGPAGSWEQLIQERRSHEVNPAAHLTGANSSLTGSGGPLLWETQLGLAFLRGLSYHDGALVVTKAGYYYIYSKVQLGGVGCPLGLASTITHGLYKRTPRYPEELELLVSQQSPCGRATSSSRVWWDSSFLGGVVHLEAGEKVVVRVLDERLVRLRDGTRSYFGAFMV

B1: 3B04: parental mouse anti-membrane LIGHT antibody, VL SEQ ID NO 1, VH SEQ ID NO 5; tested as chimeric human IgG4 mAb (antibody, listed as Homo sapiens, V domains shown)
VH: QVQLQQPGAELVRPGASVTLSCKASGYTFTDYEMHWVKQTPVHGLEWIGEIDPETGDTAYSQKFKGKATLTADKSSSTAYMEFRSLTSEDSAVYYCSRETDYFFDYWGQGTTLTVSS
VL: DIQMTQTPASLSASVGETVTITCGASENIYGALNWYQRKQGKSPQLLIYGATNLADGMSSRFSGSGSGRQYSLKISSLHPDDFATYYCQNVLTTPWTFGGGTKLEIKR
In the case of B1, in experiment [1], the “74-240 LIGHT Ka” value was 222000 M⁻¹ s⁻¹ and the “74-240 LIGHT Kd” value came to 0.00348 s⁻¹. Besides, the “Maximum signal of binding to membrane LIGHT” value in experiment [2] is listed as “approximately 40000 MFI”.

B2: 3D12: parental mouse anti-membrane LIGHT antibody, VL SEQ ID NO 41, VH SEQ ID NO 45; tested as chimeric human IgG4 mAb (antibody, listed as Homo sapiens, V domains shown)
VH: QVQLQQPGAELVRPGASVTLSCKASDYTFTDSEIHWVKQTPVHGLEWIGEIDPETGGTAYNQKFKGKATLTADKSSSTAYMELRSLTSEDSAVYYCSRETDYFFDYWGQGTTLTVSS
VL: DIQMTQSPASLSASVGETVTITCGASENIYGALNWYQRKQGKSPQLLIYGATNLADGMSSRFSGSGSGRQYSLKISSLHPDDVATYYCQNVLSTPWTFGGGTKLEIKR
Turning to B2, the “74-240 LIGHT Ka” value in experiment [1] is 168000 M⁻¹ s⁻¹. Also, the “Maximum signal of binding to membrane LIGHT” value in experiment [2] is reported as “approximately 40000 MFI”.
